Measurements published in patent US20240352111A1 (Regeneron, published 2024).

B1: H4H33336P (antibody, human IgG4 S228P, kappa, V domains shown)
VH: QVQLVESGGGVVQPGRSLRLSCVASGFILSHYGMHWVRQAPGKGLEWVAVIWFDGTNKYYADSVKGRFTVSRDNSKNTLYMQMNSLRAEDTAVYYCARDPPPARRGNYNGMDVWGQGTTVTVSS
VL: DIQMTQSPSSLSASVGDRVTITCRASQDIRNDLGWYQQKPGKAPKRLIFGASSLQSGVPLRFSGSGSGTEFTLTINNLQPEDFATFYCLQDNSYPWTFGQGTKVEIKR
notes: Fully human antibody; also called Artemin mAb; anti-ARTN antibody
B2: H4H33331P (antibody, human IgG4 S228P, kappa, V domains shown)
VH: EVQLVESGGDLVQPGGSLKLSCAASGFTFSGSAMHWVRQASGKGLEWVGRIRNKVHRYATEYGASVKGRFTISRDDSKNTAYLQMNSLKIEDTAVYYCVVVVPGSIEAFDIWGQGTMVTVSS
VL: DIQMTQSPSSLSASVGDRVTITCRASQSISTYLNWYQQKPGKAPNLLIYAASTLESGVPSRFSGSGSGTDFTLTISSLQPEDFEIYYCQQSYNIPWTFGQGTKVEIKR
notes: Fully human antibody (human variable and constant domains) from a VELOCIMMUNE mouse; also called Artemin mAb; anti-ARTN antibody
B3: H4H33349P (antibody, human IgG4 S228P, kappa, V domains shown)
VH: QVQLVESGGGVVQPGRSLRLSCEASGFTFSDYDLHWVRQAPGKGLEWVAFISNDGSNEYYPKSVKGRFSISRDNSKNTLYLQMNSLRAEDTAVYHCTKERDYYYDSSGSLDYWGQGTLVTVSS
VL: DIQMTQSPSSLSASVGDRVTITCRASQTINNYLNWYQQKPGKAPKLLIYTTSGLQSGVPSRFSGRGSGTDFTLAISSLQPEDFATYYCQQSYHSPFTFGPGTKVDIKR
notes: as for B1

Key:
[1] = target: T1, MfArtemin-MMH (cynomolgous monkey (Macaca fascicularis)); assay: SPR Biacore T200, MfArtemin-MMH captured by anti-myc mAb, mAb injected, 25 C
T1 construct: also called mfARTN.mmh; mfARTN (A108-G22).mmh
T1 chain: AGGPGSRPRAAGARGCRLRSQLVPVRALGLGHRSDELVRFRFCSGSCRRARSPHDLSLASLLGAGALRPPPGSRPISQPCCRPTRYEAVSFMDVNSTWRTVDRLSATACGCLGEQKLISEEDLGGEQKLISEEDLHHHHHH
Method: (§1) The equilibrium dissociation constant (KD) for Artemin binding to each of Artemin monoclonal antibodies (mAbs) H4H33331P, H4H33335P, H4H33336P, and H4H33349P was determined using a real-time surface plasmon resonance Biacore T200 biosensor. All binding studies were performed in 10 mM HEPES, 150 mM NaCl, 3 mM EDTA, and 0.05% v/v Surfactant Tween-20, pH 7.4 (HBS-ET) running buffer at 25° C. The Biacore CM4 sensor chip surface was first derivatized by amine coupling with anti-myc mAb to capture hArtemin-MMH, MfArtemin-MMH, or mArtemin-MMH. Different concentrations of Artemin mAbs (60-2.2 nM, 3-fold serial dilution) prepared in […] running buffer were injected over the Artemin-captured surfaces for 3 min at a flow rate of 50 μL/min and their dissociation in HBS-ET running buffer was monitored for 5 minutes. At the end of each cycle, the Artemin-captured surfaces were regenerated using a 6 sec injection of 20 mM phosphoric acid.
(§2) The association rate (kₐ) and dissociation rate (kd) were determined by fitting the real-time binding sensorgrams to a 1:1 binding model with mass transport limitation using Scrubber 2.0c curve-fitting software. Binding dissociation equilibrium constant (KD) and dissociative half-life (t½) were calculated from the kinetic rates as: KD (M)=kd/kₐ, and t_{1/2} (min)=[In2/(60*kd)].

[2] = target: T1, MfArtemin-MMH; assay: blocking ELISA, antibody blocks 400 pM mfARTN.mmh binding to plate-coated hGFRa3.hFc
Method: (§3) Experiments were carried out using the following procedures. Plates were coated with hGFRa3.hFc at 2 μg/ml in PBS on a 96-well microtiter plate at 4° C. overnight for all three assays. […] In other microtiter plates, a constant amount of either 75 pM hARTN.mmh, 400 pM mfARTN.mmh, or 150 pM msARTN.mmh were separately bound with anti-ARTN antibodies and an irrelevant IgG4 antibody control at a serial dilution series from 0.0017 nM to 100 nM in PBS+0.5% BSA. After a one-hour incubation, the mixture solutions were transferred to microtiter plates coated with hGFRa3.hFc. After one hour of incubation at RT, the wells were washed with PBST, and plate-bound ARTN was detected with an anti-penta-His antibody conjugated with horseradish peroxidase (HRP) (Qiagen). The plates were then developed using TMB substrate solution (BD Biosciences, #555214) according to manufacturer's recommendation and absorbance at 450 nm was measured on a Victor X5 plate reader.
(§4) Binding data were analyzed using a sigmoidal dose-response model within Prism™ software (GraphPad). […] If the calculated IC50 value was below the LLOA, less than LLOA was reported. Percent blocking at 100 nM antibody was calculated based on the background-corrected binding signal observed at the highest antibody concentration tested using the formula listed below and reported for all tested antibodies: […]

[3] = target: T2, mArtemin-MMH (mouse); assay: BLI (Octet HTX), mAb captured on AHC tips, artemin at 3.75 nM, 25 C
T2 construct: also called msArtemin-MMH; msARTN.mmh
T2 chain: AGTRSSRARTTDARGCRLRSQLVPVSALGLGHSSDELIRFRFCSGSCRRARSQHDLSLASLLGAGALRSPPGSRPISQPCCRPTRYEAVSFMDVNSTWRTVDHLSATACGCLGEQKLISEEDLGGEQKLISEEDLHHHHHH
Method: (§5) The entire experiment was performed at 25° C. in 10 mM HEPES, 150 mM NaCl, 3 mM EDTA, 0.02% NaN3 and 0.05% v/v Surfactant Tween-20, 1 mg/mL BSA, pH7.4 (HBS-EBT) buffer with the plate shaking at a speed of 1000 rpm. Different Artemin mAbs were first captured onto anti-human antibody (AHC) coated Octet biosensor tips (Fortebio Inc, #18-5064) by submerging the biosensor tips for 40 seconds in wells containing 2 μg/mL of Artemin mAb. […] All the Artemin and Artemin mAb samples were prepared in HBS-EBT buffer. The real-time binding response was monitored during the entire course of the experiment and the binding response at the end of every step was recorded.

[4] = target: T1, MfArtemin-MMH; assay: as above
Method: as §5

[5] = target: T3, hArtemin-MMH (human); assay: as above
T3 construct: also called hARTN.mmh; hARTN (A108-G220).mmh
T3 chain: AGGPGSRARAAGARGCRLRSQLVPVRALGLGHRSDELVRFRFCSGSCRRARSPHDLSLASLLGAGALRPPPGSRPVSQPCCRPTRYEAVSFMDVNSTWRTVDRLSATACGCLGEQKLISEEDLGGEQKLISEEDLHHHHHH
Method: as §5

[6] = target: T1, MfArtemin-MMH; assay: blocking ELISA, antibody blocks 400 pM mfARTN.mmh binding to plate-coated hGFRa3.hFc; * below lower limit of assay (1.00E-10 M)
Method: as §3, §4

[7] = target: T3, hArtemin-MMH; assay: SPR Biacore T200, hArtemin-MMH captured by anti-myc mAb, mAb injected, 25 C
Method: as §1, §2

[8] = target: T3, hArtemin-MMH; assay: blocking ELISA, antibody blocks 75 pM hARTN.mmh binding to plate-coated hGFRa3.hFc
Method: as §3, §4

[9] = target: T2, mArtemin-MMH; assay: blocking ELISA, antibody blocks 150 pM msARTN.mmh binding to plate-coated hGFRa3.hFc; * below lower limit of assay (3.75E-11 M)
Method: as §3, §4

| Binder | 60 nM Artemin mAb Bound (RU) [1] [RU] | Kd [1] [nM] | koff [1] [s⁻¹] | kon [1] [M⁻¹ s⁻¹] | t½ [1] [h] | % Blocking with 100 nM Ab [2] [%] | Artemin Binding Response (nm) [3] [nm] | Artemin Binding Response (nm) [4] [nm] | Artemin Binding Response (nm) [5] [nm] | IC50 [6] [nM] | 60 nM Artemin mAb Bound (RU) [7] [RU] | Kd [7] [nM] | koff [7] [s⁻¹] | kon [7] [M⁻¹ s⁻¹] | t½ [7] [h] | % Blocking with 100 nM Ab [8] [%] | IC50 [8] [nM] | IC50 [2] [nM] | IC50 [9] [nM] |
| --- | --- | --- | --- | --- | --- | --- | --- | --- | --- | --- | --- | --- | --- | --- | --- | --- | --- | --- | --- |
| B1 | 11 | 0.111 | 2.3e-05 | 207000 | 8.37 | 86 | 0.01 | 0.01 | 0.03 | 0.075 | 15 | 0.15 | 3.75e-05 | 249000 | 5.13 | 93 | 0.161 |  |  |
| B2 | 5 | 1.51 | 0.000199 | 131000 | 0.967 | 90 | 0.03 | 0 | 0.02 |  | 7 | 2.91 | 0.000366 | 126000 | 0.533 | 88 | 0.38 | 0.105 | < 0.0375 |
| B3 | 14 | 0.21 | 9.6e-05 | 457000 | 2 | 88 | 0.07 | 0.02 | 0.07 | 0.0302 | 18 | 0.119 | 5.9e-05 | 497000 | 3.27 | 95 | 0.128 |  | 0.00765 |
